Reference: patent US9969998B2, “Compositions of adenosine deaminase-2 (ADA2), variants thereof and methods of using same” (Halozyme, Inc., priority 2014, dated 2018)

How the values were obtained:
[1] = Spectrophotometric adenosine deaminase assay at varying pH (pH optimum); type: biochemical
Experimental: Adenosine deaminase activity of rHuADA2 and variants at varying pH were assessed to determine the pH optimum of each. The adenosine deaminase activity was determined spectrophotometrically by direct measurement of changes in adenosine absorbance. […] During the deamination reaction, the absorbance of ADO decreases while that of INO increases with time. Since the dynamic changes in absorbance make it difficult to monitor activity at a single wavelength, the relative ADO activity was determined as a ratio of the ADO peak to isobestic point (i.e. the wavelength where ADO and INO have the same extinction coefficient). The isobestic point, which is 253 nm, remains unchanged and is concentration independent, so that it is the reference point to correct for volume or intensity discrepancies.
To construct the standard curve for ADO and INO, a series of solution mixtures in 0.001% Tween-20 containing different concentrations of ADO and INO were prepared. The total concentration of ADO and INO mix was 50 μM, in 1×PBS (10 mM phosphate, 137 mM NaCl, 2.7 mM KCl), pH 7.4. The samples were scanned with the wavelengths between 220 nm and 300 nm to determine the isosbestic point, where all spectra cross.
For performing the spectrophotometric adenosine deaminase assay of ADA2 and variants, a 2× solution containing 10 mM ADO in 100 mM potassium phosphate buffer (KPB), 0.1% Tween-20 at different pHs (i.e. 5.5, 6, 6.5, 6.75, 7, 7.25, 7.4, 7.75 and 8) were prepared. A separate 2× solution containing 2 μg/mL WT rHuADA2 or variants were prepared in the same 100 mM potassium phosphate buffer (KPB), 0.1% Tween-20 at the respective pH (i.e. 5.5, 6, 6.5, 6.75, 7, 7.25, 7.4, 7.75 and 8). An equal volume of the ADO solution and the ADA2 solution (wildtype or variants) were mixed to initiate reaction. At each time point (i.e. 1, 3, 5, 7, 9, 11, 13 and 15 min), a small aliquot (4 μl) was removed and diluted 50 times by adding to 196 μl 1×PBS, pH 7.4. The diluted samples were further diluted 2 fold (in duplicates) by adding 85 μl samples to 85 μl 1×PBS in a UV-transparent half area plate. The absorbance at 253 nm and 261 nm were measured of each diluted sample.
Adenosine concentration was determined using the A261/A253 ratio and the standard curve. Adenosine deaminase activity was measured by negative change in ADO concentration per min×100.

[2] = Kinetic assessment of adenosine deaminase activity (ammonia assay, Michaelis-Menten); type: biochemical; conditions: for Km / Vmax / kcat: [E] = 8.5 nM; for kcat: kcat=Vmax/0.0085/60
Procedure, shortened: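 Coupled ammonia assay: rHuADA2 WT or variants (1 μg/mL, 17 nM in 2× mix) with adenosine 20 μM–20 mM, α-ketoglutarate, NADPH and GDH, at pH 7.6 or pH 6.5 (PIPES), room temperature. Michaelis-Menten fit gave Km, Vmax, kcat, kcat/Km.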

[3] = Thermal stability by differential scanning fluorimetry (DSF); type: physicochemical; conditions: 0.1-1 mg/mL protein
Experimental: The stability of the rHuADA2 WT and variants was measured by differential scanning fluorimetry (DSF) at increasing temperatures. DSF measures conformational stability, which correlates with thermal stability. The melting temperature (Tm) in DSF is defined as the midpoint of the protein unfolding transition.
Non-PEGylated WT rHuADA2, non-PEGylated rHuADA2 variants, and PEGylated forms of WT rHuADA2 and rHuADA2 variants were prepared at concentrations of 0.1-1 mg/mL and mixed with the ROX™ protein thermal shift dye (Applied Biosystems, Carlsbad, Calif.; Cat. No. 4461146) to a final dye concentration that corresponds to a 125-fold dilution of the stock ROX™ solution. Protein samples were then loaded into 96-well plate at a volume of 20 μL/well in triplicate. A ViiA7 RT-PCR System (Applied Biosystems, Carlsbad, Calif.) was used to measure the shift in fluorescence as the temperature of the samples were increased. The reactions were subjected to the following steps: incubation at 25° C. for 2 min; ramping of temperature from 25 to 99° C. at a rate of 0.05° C. per second; followed by a 99° C. incubation for 2 min. The wavelengths used for emission and excitation were 623 nanometers (nm) and 580 nm, respectively.

[4] = Heparin binding ELISA (heparin coated microtiter plate); conditions: single and S265N combination variants (Table 34)
Experimental: A 96-well plate was coated with 100 μL of 200 μg/mL heparin sodium salt (Calibochem, EMD Milipore, Billerica, Mass.; Cat. No. 375095) in Na2CO3 buffer (pH 9.6), overnight at 4° C. The wells were blocked with 5% milk in PBS, and washed 6 times with PBS. 3 μM of select rHuADA2 variants (see Table 20), WT rHuADA2 (positive control) and WT rHuADA1 (negative control) were added to the wells individually and incubated for 2 hours at room temperature, followed by washing 6 times with PBS. 100 μL of 1:1000 diluted horseradish peroxidase (HRP)-anti-FLAG antibody (Abcam, Cambridge, UK; Cat. No. Ab1238) was added to the wells to detect binding and incubated at room temperature for 1 hour. The ELISA reactions were developed by adding the 3,3′,5,5′-Tetramethylbenzidine (TMB) substrate solution (Pierce, Thermo Fisher Scientific, Rockford, Ill.) according the manufacturer's instructions and reading the optical density at 450 nm (OD450) on a plate reader.

Row | Heparin Binding ELISA Average OD450 [4] | Molecule | Adenosine deaminase activity Δ [ADO]/min × (−100) ([1]; pH 5.5) | Adenosine deaminase activity Δ [ADO]/min × (−100) ([1]; pH 6) | Adenosine deaminase activity Δ [ADO]/min × (−100) ([1]; pH 6.5) | Adenosine deaminase activity Δ [ADO]/min × (−100) ([1]; pH 6.75) | Adenosine deaminase activity Δ [ADO]/min × (−100) ([1]; pH 7) | Adenosine deaminase activity Δ [ADO]/min × (−100) ([1]; pH 7.25) | Adenosine deaminase activity Δ [ADO]/min × (−100) ([1]; pH 7.4) | Adenosine deaminase activity Δ [ADO]/min × (−100) ([1]; pH 7.75) | Adenosine deaminase activity Δ [ADO]/min × (−100) ([1]; pH 8) | Km ([2]; pH 6.5) [µM] | Vmax ([2]; pH 6.5) [µM/min] | kcat ([2]; pH 6.5) [s⁻¹] | Km ([2]; pH 7.6) [µM] | Vmax ([2]; pH 7.6) [µM/min] | kcat ([2]; pH 7.6) [s⁻¹] | kinetics properties compared to WT ([2]; pH 7.6 and pH 6.5) | Tm, melting temperature by DSF [3] [°C]
1 | 0.93 | S265N/R23E/K374E: ADA2 combination variant SEQ ID NO:63 (protein, human ADA2 S262N/R20E/K371E, mature numbering) IDETRAHLLLKEKMMRLGGELVLNTKEELANERLMTLKIAEMKEAMRTLIFPPSMHFFQAKHLIERSQVFNILRMMPKGAALHLHDIGIVTMDWLVRNVTYRPHCHICFTPRGIMQFRFAHPTPRPSEKCSKWILLEDYRKRVQNVTEFDDSLLRNFTLVTQHPEVIYTNQNVVWSKFETIFFTISGLIHYAPVFRDYVFRSMQEFYEDNVLYMEIRARLLPVYELSGEHHDEEWSVKTYQEVAQKFVETHPEFIGIKIIYNDHRSKDVAVIAESIRMAMGLRIKFPTVVAGFDLVGHEDTGHSLHDYKEALMIPAKDGVKLPYFFHAGETDWQGTSIDRNILDALMLNTTRIGHGFALSKHPAVRTYSWEKDIPIEVCPISNQVLKLVSDLRNHPVATLMATGHPMVISSDDPAMFGAKGLSYDFYEVFMGIGGMKADLRTLKQLAMNSIKYSTLLESEKNTFMEIWKKRWDKFIADVATK | 37.94 | 52.70 | 66.08 | 67.95 | 74.68 | 77.81 | 67.77 | 35.97 | 2.04 | 1290 | 63.74 | 124.98 | 2870 | 82.38 | 161.53 | greatest improvements in catalytic activity at pH 6.5 | 60.4
2 | 0.92 | S265N/K374D: ADA2 combination variant SEQ ID NO:59 (protein, human ADA2 S262N/K371D, mature numbering) IDETRAHLLLKEKMMRLGGRLVLNTKEELANERLMTLKIAEMKEAMRTLIFPPSMHFFQAKHLIERSQVFNILRMMPKGAALHLHDIGIVTMDWLVRNVTYRPHCHICFTPRGIMQFRFAHPTPRPSEKCSKWILLEDYRKRVQNVTEFDDSLLRNFTLVTQHPEVIYTNQNVVWSKFETIFFTISGLIHYAPVFRDYVFRSMQEFYEDNVLYMEIRARLLPVYELSGEHHDEEWSVKTYQEVAQKFVETHPEFIGIKIIYNDHRSKDVAVIAESIRMAMGLRIKFPTVVAGFDLVGHEDTGHSLHDYKEALMIPAKDGVKLPYFFHAGETDWQGTSIDRNILDALMLNTTRIGHGFALSKHPAVRTYSWDKDIPIEVCPISNQVLKLVSDLRNHPVATLMATGHPMVISSDDPAMFGAKGLSYDFYEVFMGIGGMKADLRTLKQLAMNSIKYSTLLESEKNTFMEIWKKRWDKFIADVATK | 22.89 | 33.51 | 39.06 | 41.58 | 45.98 | 42.69 | 43.37 | 22.29 | 4.36 | 1510 | 43.85 | 85.98 | 2860 | 78.29 | 153.51 | – | 60.8
3 | 0.69 | S265N/R23E/K374D: ADA2 combination variant SEQ ID NO:62 (protein, human ADA2 S262N/R20E/K371D, mature numbering) IDETRAHLLLKEKMMRLGGELVLNTKEELANERLMTLKIAEMKEAMRTLIFPPSMHFFQAKHLIERSQVFNILRMMPKGAALHLHDIGIVTMDWLVRNVTYRPHCHICFTPRGIMQFRFAHPTPRPSEKCSKWILLEDYRKRVQNVTEFDDSLLRNFTLVTQHPEVIYTNQNVVWSKFETIFFTISGLIHYAPVFRDYVFRSMQEFYEDNVLYMEIRARLLPVYELSGEHHDEEWSVKTYQEVAQKFVETHPEFIGIKIIYNDHRSKDVAVIAESIRMAMGLRIKFPTVVAGFDLVGHEDTGHSLHDYKEALMIPAKDGVKLPYFFHAGETDWQGTSIDRNILDALMLNTTRIGHGFALSKHPAVRTYSWDKDIPIEVCPISNQVLKLVSDLRNHPVATLMATGHPMVISSDDPAMFGAKGLSYDFYEVFMGIGGMKADLRTLKQLAMNSIKYSTLLESEKNTFMEIWKKRWDKFIADVATK | 20.27 | 28.16 | 35.51 | 33.24 | 40.08 | 42.28 | 34.66 | 18.46 | 4.94 | 1500 | 43.42 | 85.14 | 3130 | 72.78 | 142.71 | – | 59.8
